Experimental data taken from the RNAGym collection of RNA variant scans (doi:10.1073/pnas.2313332121).

B1: TPR t1 (parent)
chain: GACCAAUCUGCCCUCAGAGCUCGAGAACAUCUUCGGAUGCAGAGGAGGCAGGCUUCGGUGGCGCGAUAGCGCCAACGUCCUCAACCUCCAAUGCAUCCCACCACAUGAUGAUGCCUGAAGAGCCUUGGUUUUUUG

Variants of: B1
Assay: polymerase ribozyme fitness, log enrichment relative to wild type (log ratio); higher = more active; in vitro selection for triplet polymerase activity
In short: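 To select mutant libraries of each subunit of a heterodimeric triplet polymerase ribozyme, built by PCR and transcribed, each was annealed with a biotinylated primer, partner subunit and triplets, then incubated frozen at −7 °C. Extended constructs were gel-excised, captured on streptavidin beads and amplified by RT-PCR, in one round carried out in triplicate. Illumina sequencing of input and output libraries kept genotypes with ≥10 input reads and ≥1 read per output. Fitness is the base-2 logarithm of genotype enrichment relative to wild-type enrichment, from inverse-variance-weighted replicate averages.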

Variant	polymerase ribozyme fitness (log ratio)
U38G C101A	-1.88
U38A C114A A121U	-1.59
U38G C56U C72A U131C	-2.05
A37U G45A C72G	-1.92
U38G U78A	-0.0381
A37G G39A C86G	-3.13
G36C G69U A91U C94A G113C	-3.07
G36U A50C G60A	-2
G35U A121G	-3.56
G36U G44A G71U	-3.19
G36A C72G G117A	-3.71
G36U G127A	-2.27
G39A A43U	-1.78
A37U C73G U130G	-1.38
G36A U59C U126G	-2.55
G36A U81A	-1.3
G36C C76G	-1.25
G36C G44A G71U A75G C89A	-4.65
G36C G44A A74U C79G C101U	-4.54
G36U U55C G93A	-2.49
A37G U87C A95G A100U U130A	-3.04
A37C C79A C94U	-2.07
U38A G120U	0.263
G36U C70G C101A G120A	-3.68

Variant	polymerase ribozyme fitness (log ratio)
U38G G42U G61U C73U C115U	-3.73
G36C C72A C94A C104U	-3.64
G36C G110A	-1.62
A37U U125G	-1.07
G36C A37G C79A	-2.53
A37U G44A U87G A119U G128C	-3.53
G36A G113U A119U	-4.19
U38G A90U	-1.61
A37C C70A	-1.82
G36U U106A	-1.6
A37G G60U C72G C99A A103G C114U U129C	-7.36
A37G G60A	-1.03
G36A C85A G117A	-3.37
A37U A74U	-0.149
A37U A46U G47A C123G	-1.6
G36U G39C C124G	-0.0867
G36C G44C C73U G110C C124U U125A	-4.74
A37G A43U G52A G57U C98U	-5.9
A37C G61U C73U	-1.35
A37U A41C C64A U109A G128U	-5.77
A37U A74C C88G G110A	-3.27
U38C G42C U78A A84C	-3.16
G36A A121C	0.979
A37U A43U C73A U96C A111C U112A	-4.83

Variant	polymerase ribozyme fitness (log ratio)
U38G G39A C72A U81A U112A	-2.71
U38A A50U C73G A121U	-0.841
G36C G47U U55G G61U C101U U132A	-3.11
A37C C56G G58A G63C G77C	-3.59
A37G C62A G93U A121G	-3.43
G36U G39U C70U A111G	-4.55
A37U C72A C98A C123G	-5.43
U38G G42C A43U G71C C82U C115U	-4.36
U38A U54G U112C G120A	-0.498
A37C C115U U130A U132G	-1.99
G36A G47A G61U	-1.37
G36A G127C	-1.81
A37U U106G C123G	0.0565
G36A C49A C56G C80A A90G	-4.92
A37C G45U C123A	-0.836
A37G A46G A83C	-2.03
U38G C40U	-1.03
G36A G42A A74G G127C	-3.95
A37U G63C G69U C97U C99U G110U	-5.81
A37G A83C U125A	-0.963
A37U G71U	-0.54
U38G C80A C88U	-4.45
G36A G58C U116G	-3.49
G36U A68G	-3.62

Variant	polymerase ribozyme fitness (log ratio)
G39A A118G A121U	1.46
G35U G69U	-0.908
G36U A118G G128A	-3.98
G36A U55G C115A	-1.03
G36C C64U G93A A100C	-3.67
G36U U87C C115U A119G U131C	1.61
U38G C53U C124U	0.103
G36C G61U A95C	-2.42
U38G A121C	1.24
U38G G44A	-2.72
A37U U54A G61C U109C	-7.14
G36C U129A	-2.27
A37G G57C G58U G120U	-0.432
G36C G45C	-2.04
G36A U55G G120C	0.249
A37U U92C	-1.28
G35U A90C C97G A121C	-7.34
G36U G52U	-2.2
A37U G71U G122A	-1.17
G36U A121C U125A G127U G128C	-0.954
A37G G71U	-1.09
A37G A50U C94U C104U G117C	-5.89
U38G A46U G77U C124U	-1.67
U38A U96A	-1.13

Variant	polymerase ribozyme fitness (log ratio)
U38G C49A G77U C85G C115A	-3.84
G36A G52A A66G	-2.6
G36C G120C	0.237
A37U C88U	-0.319
G36A C89A	-2.49
G36U C53A C89G	-2.84
U38G G47U	-3.26
G39A C56A G120U	-0.286
G39A C40A	-3.25
G36C G51A C101U	-3.92
G36U C53U G63A C123G	-0.478
G36U C49U	-2.72
A37U C114A C124U	-1.39
A37C A50C	-0.281
G39A C56A	-0.909
G36A G48A U112A U131C	0.386
G36C U81A A84U	-2.7
U38A G63A	-2.12
U38A A50U C62U C123G U133A	-1.2
G36A G61U C72G G77A C82A C98U	-6
G36A C49A C56U	-0.697
G36U G39C G69A C82A G120U	-5.69
G36A G52A G63U	-3.22
A37C G52C G117A	-2.76

Variant	polymerase ribozyme fitness (log ratio)
G35U C64U A90U U106A C115G G117A A119G	-6.88
G36A G42C A84U U106A G110C C123U G128A	-7.57
A37U G44A G113C U130A	-3.29
G36C G63U A83G U126G	-5.42
A37G C49G A111U U126G	-6.22
G36A A68G	-3.57
G39A A50C C73A C79A C82G	-0.859
G35U A75U C124A	-4.78
G39A C53U G61C A84U G127C	-2.2
A37G G45C C89U A95G	-5.88
A37G C88G	-2.83
G36U G44A U112A	-0.0288
G36A G61C	-2.63
A37U C72U	-1.56
U38A C49G U55G	-2.77
G36C G58C C101G A111U	-5
A37U A46U G47A U130G U131G	-3.56
G36U A46U C72A C97U	-1.58
U38G C102U	-3.84
U38A C101G G120C	-2.43
A37U G60A	-0.626
U38G A105C U112A G122C	-5.07
G36A A121U U133A	1.79
A37C C62G A83U C88U	-2.61

Variant	polymerase ribozyme fitness (log ratio)
A37U C70U	-1.07
G36U C72U U96G G120C	-0.581
G36U G110U G120A	-2.35
A37G C56G U96C	-0.381
G36C C72G C102A	-4.94
G36A C72U	-1.29
A37C A95U	-0.484
G36C G39C C62U C124G U130G	-1.27
G36C C49U A74G C101G A119U	-3.8
A37C C70A C72U G120U	-1.56
A37U G110C A121U	-3.77
A37G G42A G61A	-1.68
G36A G71U	-0.815
G36C U112A	-1.13
G36U G45A A119U	-1.61
G39A A68G C115G U130A	-6.03
G36C G51A C70A C101U	-7.34
G36A U96G	-1.67
G36A C114A	-2.96
A37U U54A A84U	-0.554
G36U A46C	-2.09
G36A G107A C124A	-7.46
G36A G63A C94U U132A	-1.7
